Experimental data reported in US20050037339A1 (published 2005).

Columns and labels:
[1] = target: T1, BoNT-A C-fragment (UniProt P0DPI0 871-1296); assay: SPR (BIAcore), purified scFv; Kd calculated as koff/kon
[2] = target: T1, BoNT-A C-fragment; assay: SPR (BIAcore), purified scFv

T1 sequence (P0DPI0 871-1296): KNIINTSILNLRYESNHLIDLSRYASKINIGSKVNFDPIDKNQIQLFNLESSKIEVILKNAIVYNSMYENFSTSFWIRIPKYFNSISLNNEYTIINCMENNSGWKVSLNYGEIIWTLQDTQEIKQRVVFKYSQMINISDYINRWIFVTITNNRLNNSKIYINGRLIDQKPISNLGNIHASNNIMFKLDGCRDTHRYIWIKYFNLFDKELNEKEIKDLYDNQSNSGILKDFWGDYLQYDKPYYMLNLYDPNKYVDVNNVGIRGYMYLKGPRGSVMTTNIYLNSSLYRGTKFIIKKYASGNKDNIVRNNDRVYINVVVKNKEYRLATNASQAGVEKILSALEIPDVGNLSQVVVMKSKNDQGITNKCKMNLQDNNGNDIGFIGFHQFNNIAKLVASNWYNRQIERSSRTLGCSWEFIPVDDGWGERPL

B1: anti-BoNT-A scFv 2B6 (scFv)
chain: VKLVESGPGLVKPSQSLSLTCTVTGYSITSDYAWNWIRQFPGNKLEWMGYINYDGSNNYNPSLKNRISITRDTSKNQFFLKLNSVTSEDTATYYCARAGDGYYVDWYFDVWGTGTTVIVSSGGGGSGGGGSGGGGSYIELTQSPASLAVSLGQRATTSCRASESVDSYGNSFMHWYQQKPGQPPKLLIYLASNLESGVPARFSGSGSRTDFTLTIDPVEADDAATYYCQQNNEDPYTFGGGTKLEIKS
Binder B1 has a Kd [1] of 71.5 nM, a koff [2] of 0.0078 s⁻¹ and a kon [2] of 110000 M⁻¹ s⁻¹.
